Test [1] deals with T1, B7 Homolog 3 (B7H3) on B78 melanoma tumor cells.
T1 construct: whole, on cells; In the PET study, tumours that were B7H3-positive and GD2-negative were also used; also called CD276; Cluster of Differentiation 276
The experiment in a line: cell binding, RFU, B7H3 B78 cells (GD2 and human B7H3); both arms can bind.

Test [2] deals with T2, B7H3 (antigen of the 'B7H3 Octet' value).
T2 construct: antigen of the Octet measurement
T2 sequence (Q5ZPR3 whole entry, species assumed, looked up): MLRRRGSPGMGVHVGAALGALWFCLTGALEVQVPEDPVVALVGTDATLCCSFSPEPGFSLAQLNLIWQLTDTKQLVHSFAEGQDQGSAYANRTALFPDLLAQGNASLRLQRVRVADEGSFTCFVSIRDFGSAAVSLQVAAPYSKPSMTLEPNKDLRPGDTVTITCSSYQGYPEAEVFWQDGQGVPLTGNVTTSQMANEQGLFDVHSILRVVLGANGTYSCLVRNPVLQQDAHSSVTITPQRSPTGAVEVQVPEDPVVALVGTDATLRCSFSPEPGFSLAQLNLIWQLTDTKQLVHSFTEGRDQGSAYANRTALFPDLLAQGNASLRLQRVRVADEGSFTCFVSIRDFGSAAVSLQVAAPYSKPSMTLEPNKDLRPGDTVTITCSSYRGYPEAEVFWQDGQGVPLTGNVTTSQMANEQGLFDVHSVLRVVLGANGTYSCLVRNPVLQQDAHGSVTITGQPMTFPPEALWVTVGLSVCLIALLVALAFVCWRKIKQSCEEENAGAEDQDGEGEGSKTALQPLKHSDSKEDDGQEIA
The test is described as follows: Octet, monovalent affinity of the B7H3 arm; construct measured and form of B7H3 not given.

In test [3] the target is T3, mB7H3 (endogenous mouse B7H3 on B16 and B78 cells) (mouse, UniProt Q8VE98).
T3 construct: B78 also carries GD2; also called murine B7H3
T3 sequence (receptor, looked up): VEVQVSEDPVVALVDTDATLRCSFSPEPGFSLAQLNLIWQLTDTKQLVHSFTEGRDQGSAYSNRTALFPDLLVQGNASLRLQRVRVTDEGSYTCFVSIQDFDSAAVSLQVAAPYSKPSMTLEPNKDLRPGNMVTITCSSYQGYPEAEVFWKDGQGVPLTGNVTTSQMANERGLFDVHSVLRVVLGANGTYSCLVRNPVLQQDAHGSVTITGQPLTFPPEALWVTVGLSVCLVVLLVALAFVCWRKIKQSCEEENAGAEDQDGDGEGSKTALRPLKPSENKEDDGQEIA
The experiment in a line: flow cytometry on B16 cells (no GD2, mouse B7H3), GAH PE; anti-GD2 antibody as control. Background: Flow cytometry measures light scatter and fluorescence of single cells or particles in a stream.

We go through two molecules from US20230018670A1 (WIN THERAPEUTICS, published 2023).

“And” between values parts separate entries of the source, which are not always exact repeats. Identical values can stand only once.

B1: INV721 (bivalent bispecific anti-B7H3 x anti-GD2 antibody) (bispecific antibody, V domains shown)
VL 1: DIQMTQSPSSLSASVGDRVTITCRASQSVSSAVAWYQQKPGKAPKLLIYSASSLYSGVPSRFSGSRSGTDFTLTISSLQPEDFATYYCQQSGRSLYTFGQGTKVEIK
VH 1: EVQLVESGGGLVQPGGSLRLSCAASGFTFSTYYIHWVRQAPGKGLEWVAWIHPSGKYTYYADSVKGRFTISADTSKNTAYLQMNSLRAEDTAVYYCARHYQVGAMDYWGQGTLVTVSS
VL 2: DIQMTQSPSSLSASVGDRVTITCRSSQSLVHRNGNTYLHWYQQKPGKAPKLLIHKVSNRFSGVPSRFSGSGSGTDFTLTISSLQPEDFATYYCSQSTHVPPLTFGQGTKVEIK
VH 2: EVQLVESGGGLVQPGGSLRLSCAASGSSFTGYNMNWVRQAPGKGLEWVAAIDPYYGGTYYADSVKGRFTISADTSKNTAYLQMNSLRAEDTAVYYCASGMEYWGQGTLVTVSS
modifications: 89Zr-radiolabelled in the PET and biodistribution studies. An a-fucosylated version is used in FIG. 66.
notes: 89Zr-labelled in the in vivo PET study; also called I7-01/GD2-5/7; I7-01/GD2-7
One may read the EC50 as the concentration giving half of the maximal effect. The low end stands for greater potency, the high end for weaker potency. Usually Kd stands for the constant that tells how readily two partners part at equilibrium. Read a low Kd as tighter binding. For B1, in test [1], the EC50 was 0.35 nM and 0.357 nM. This molecule also showed a Kd in test [2] of 2.4 nM.

B2: Invenra GD2-5 (antibody, V domains shown)
VH: EVQLVESGGGLVQPGGSLRLSCAASGSSFTGYNMNWVRQAPGKGLEWVAAIDPYYGGTYYADSVKGRFTISADTSKNTAYLQMNSLRAEDTAVYYCASGMEYWGQGTLVTVSS
VL: DIQMTQSPSSLSASVGDRVTITCRSSQSLVHRNGNTYLHWYQQKPGKAPKLLIHKVSNRFSGVPSRFSGSGSGTDFTLTISSLQPEDFATYYCSQSTHVPPLTFGQGTKVEIK
notes: anti-GD2 antibody; stands here only as a control on B16 cells; also called GD2-05; anti-GD2 monoclonal antibody GD2-5
On to B2, for which, in test [3], the binding result is on record as “no binding (tested: 1 ug antibody per million cells)”.
